Results taken from the supplement of paper PMC9112550, “Optimization of the antimicrobial peptide Bac7 by deep mutational scanning” (BMC Biology, 2022).

Test system: Escherichia coli TOP10
Test: shrunken log2 fold change of peptide-encoding DNA abundance (4.5 h post-induction vs induction); higher = less antimicrobial activity (less host growth inhibition)
Conditions: time post-induction: 4.5 h; library: site-saturation at positions 5, 18, 19, 20
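Further: peptides expressed intracellularly from a pBAD plasmid library in pooled LB shake-flask culture, induced with 0.3% L-arabinose, DNA abundance read by NGS, three biological replicates, DESeq2 with apeglm shrinkage.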

Sequence	shrunken log2 fold change
RRIRWRPPRLPRPRPRPIWRPRP	0.628
RRIRARPPRLPRPRPRPTFPPRP	0.308
RRIRSRPPRLPRPRPRPLRSPRP	0.747
RRIRQRPPRLPRPRPRPENCPRP	-0.219
RRIRWRPPRLPRPRPRPLVSPRP	1.59
RRIRERPPRLPRPRPRPTEEPRP	0.00212
RRIRVRPPRLPRPRPRPYAKPRP	-0.0931
RRIRRRPPRLPRPRPRPVDFPRP	0.178
RRIRPRPPRLPRPRPRPGMGPRP	0.149
RRIRHRPPRLPRPRPRPYCHPRP	-0.0851
RRIRFRPPRLPRPRPRPRQRPRP	0.346
RRIRCRPPRLPRPRPRPVREPRP	0.386
RRIRCRPPRLPRPRPRPWQNPRP	-0.124
RRIRLRPPRLPRPRPRPDNAPRP	0.0803
RRIRDRPPRLPRPRPRPAQQPRP	-0.0267
RRIRGRPPRLPRPRPRPCDVPRP	-0.014
RRIRCRPPRLPRPRPRPIFLPRP	-0.257
RRIRMRPPRLPRPRPRPFSMPRP	-0.112
RRIRFRPPRLPRPRPRPKFAPRP	0.102
RRIRWRPPRLPRPRPRPQGHPRP	0.0837
RRIRCRPPRLPRPRPRPPDTPRP	0.269
RRIRSRPPRLPRPRPRPPVDPRP	0.327
RRIRCRPPRLPRPRPRPMRIPRP	0.497
RRIRTRPPRLPRPRPRPWIAPRP	-0.0119
RRIRARPPRLPRPRPRPQGNPRP	-0.144

Sequence	shrunken log2 fold change
RRIRTRPPRLPRPRPRPSMEPRP	-0.136
RRIRIRPPRLPRPRPRPTVVPRP	-0.0277
RRIRDRPPRLPRPRPRPIFAPRP	0.142
RRIRYRPPRLPRPRPRPPEIPRP	-0.0815
RRIRHRPPRLPRPRPRPGAAPRP	0.324
RRIRKRPPRLPRPRPRPQGEPRP	-0.000844
RRIRWRPPRLPRPRPRPIYGPRP	-0.0358
RRIRPRPPRLPRPRPRPGFCPRP	0.295
RRIRLRPPRLPRPRPRPIPWPRP	0.0447
RRIRPRPPRLPRPRPRPRSQPRP	0.263
RRIRPRPPRLPRPRPRPKPDPRP	0.0452
RRIRYRPPRLPRPRPRPSNAPRP	-1
RRIRPRPPRLPRPRPRPIAPPRP	0.265
RRIRDRPPRLPRPRPRPFVNPRP	-0.254
RRIRDRPPRLPRPRPRPSQKPRP	-0.0691
RRIRFRPPRLPRPRPRPEGLPRP	-0.0574
RRIRYRPPRLPRPRPRPKDAPRP	-0.0259
RRIRARPPRLPRPRPRPVVHPRP	0.297
RRIRQRPPRLPRPRPRPWFMPRP	-1.08
RRIRMRPPRLPRPRPRPARMPRP	0.888
RRIRPRPPRLPRPRPRPEGDPRP	0.39
RRIRNRPPRLPRPRPRPEQVPRP	0.0249
RRIRERPPRLPRPRPRPFPEPRP	-0.426
RRIRGRPPRLPRPRPRPPGQPRP	0.976
RRIRGRPPRLPRPRPRPPYDPRP	0.0844

Sequence	shrunken log2 fold change
RRIRFRPPRLPRPRPRPARSPRP	0.336
RRIRNRPPRLPRPRPRPNMRPRP	0.23
RRIRWRPPRLPRPRPRPFTGPRP	0.0256
RRIRGRPPRLPRPRPRPQLCPRP	0.0863
RRIRRRPPRLPRPRPRPQSPPRP	0.281
RRIRIRPPRLPRPRPRPISDPRP	-0.0354
RRIRNRPPRLPRPRPRPVSEPRP	-0.253
RRIRWRPPRLPRPRPRPIQMPRP	-0.0543
RRIRMRPPRLPRPRPRPEELPRP	0.123
RRIRSRPPRLPRPRPRPGCCPRP	0.396
RRIRYRPPRLPRPRPRPWFFPRP	-0.841
RRIRCRPPRLPRPRPRPHSYPRP	-0.272
RRIRIRPPRLPRPRPRPLKCPRP	0.0563
RRIRGRPPRLPRPRPRPCDAPRP	0.473
RRIRNRPPRLPRPRPRPYAKPRP	-0.257
RRIRMRPPRLPRPRPRPDQEPRP	0.0392
RRIRHRPPRLPRPRPRPGMYPRP	-0.298
RRIRMRPPRLPRPRPRPRCFPRP	0.397
RRIRRRPPRLPRPRPRPLSTPRP	0.021
RRIRDRPPRLPRPRPRPGPQPRP	-0.0494
RRIRWRPPRLPRPRPRPNQRPRP	0.181
RRIRLRPPRLPRPRPRPDELPRP	0.00705
RRIRMRPPRLPRPRPRPVSLPRP	0.422
RRIRHRPPRLPRPRPRPQVPPRP	0.0019
RRIRERPPRLPRPRPRPPKQPRP	0.0175

Sequence	shrunken log2 fold change
RRIRQRPPRLPRPRPRPYDGPRP	-0.101
RRIRNRPPRLPRPRPRPEKLPRP	-0.00804
RRIRCRPPRLPRPRPRPFHCPRP	-0.451
RRIRPRPPRLPRPRPRPEPGPRP	0.27
RRIRIRPPRLPRPRPRPECWPRP	0.202
RRIRIRPPRLPRPRPRPWHIPRP	0.0542
RRIRKRPPRLPRPRPRPKLSPRP	-0.0159
RRIRIRPPRLPRPRPRPIIDPRP	-0.372
RRIRDRPPRLPRPRPRPYIYPRP	-0.184
RRIRTRPPRLPRPRPRPLKGPRP	-0.377
RRIRVRPPRLPRPRPRPNSEPRP	-0.43
RRIRKRPPRLPRPRPRPRFPPRP	0.647
RRIRDRPPRLPRPRPRPHIRPRP	0.00704
RRIRWRPPRLPRPRPRPKWIPRP	-0.0267
RRIRLRPPRLPRPRPRPQTVPRP	-0.211
RRIRPRPPRLPRPRPRPRNKPRP	-0.136
RRIRVRPPRLPRPRPRPVRFPRP	0.391
RRIRGRPPRLPRPRPRPRKNPRP	0.74
RRIRQRPPRLPRPRPRPDAYPRP	-0.228
RRIRERPPRLPRPRPRPYPLPRP	-0.192
RRIRNRPPRLPRPRPRPMREPRP	0.13
RRIRFRPPRLPRPRPRPRELPRP	0.263
RRIRHRPPRLPRPRPRPSEMPRP	-0.0714
RRIRHRPPRLPRPRPRPALLPRP	0.284
RRIRRRPPRLPRPRPRPLNWPRP	0.296

Sequence	shrunken log2 fold change
RRIRARPPRLPRPRPRPGWSPRP	0.57
RRIRFRPPRLPRPRPRPSIYPRP	-0.615
RRIRNRPPRLPRPRPRPRFNPRP	-0.766
RRIRYRPPRLPRPRPRPFRNPRP	-0.462
RRIRERPPRLPRPRPRPFGTPRP	-0.135
RRIRQRPPRLPRPRPRPNDVPRP	0.00724
RRIRPRPPRLPRPRPRPHYVPRP	-0.348
RRIRQRPPRLPRPRPRPIDPPRP	0.0328
RRIRNRPPRLPRPRPRPYMWPRP	-0.328
RRIRHRPPRLPRPRPRPFTEPRP	0.00246
RRIRQRPPRLPRPRPRPMTRPRP	0.0107
RRIRVRPPRLPRPRPRPGNNPRP	-0.249
RRIRERPPRLPRPRPRPVYFPRP	-0.207
RRIRVRPPRLPRPRPRPYMNPRP	-0.962
RRIRHRPPRLPRPRPRPHFQPRP	0.0598
RRIRVRPPRLPRPRPRPQTMPRP	-0.689
RRIRSRPPRLPRPRPRPMTHPRP	-0.469
RRIRLRPPRLPRPRPRPKGYPRP	-0.146
RRIRDRPPRLPRPRPRPYHTPRP	-0.403
RRIRLRPPRLPRPRPRPGTQPRP	-0.0907
RRIRHRPPRLPRPRPRPEVSPRP	-0.0122
RRIRMRPPRLPRPRPRPTEMPRP	0.14
RRIRFRPPRLPRPRPRPPVPPRP	0.859
RRIRDRPPRLPRPRPRPNFNPRP	-0.307
RRIRGRPPRLPRPRPRPIFNPRP	0.051

Sequence	shrunken log2 fold change
RRIRERPPRLPRPRPRPWISPRP	0.0119
RRIRTRPPRLPRPRPRPERAPRP	0.55
RRIRLRPPRLPRPRPRPDQCPRP	-0.0609
RRIRKRPPRLPRPRPRPEQNPRP	0.949
RRIRNRPPRLPRPRPRPHQYPRP	-0.458
RRIRFRPPRLPRPRPRPGKAPRP	0.0429
RRIRDRPPRLPRPRPRPQCWPRP	0.0162
RRIRYRPPRLPRPRPRPHKPPRP	-0.171
RRIRGRPPRLPRPRPRPVHPPRP	2.04
RRIRWRPPRLPRPRPRPEMQPRP	1.12
RRIRVRPPRLPRPRPRPEQIPRP	-0.0137
RRIRYRPPRLPRPRPRPSYQPRP	-1.27
RRIRARPPRLPRPRPRPFQEPRP	0.127
RRIRPRPPRLPRPRPRPADQPRP	0.00426
RRIRGRPPRLPRPRPRPYWLPRP	-0.0478
RRIRWRPPRLPRPRPRPNDSPRP	-0.134
RRIRERPPRLPRPRPRPNIAPRP	0.0918
RRIRHRPPRLPRPRPRPENYPRP	-0.327
RRIRVRPPRLPRPRPRPQRFPRP	-0.163
RRIRMRPPRLPRPRPRPVMQPRP	-0.221
RRIRERPPRLPRPRPRPWITPRP	-0.00674
RRIRYRPPRLPRPRPRPSNYPRP	-1.28
RRIRSRPPRLPRPRPRPTHMPRP	0.188
RRIRKRPPRLPRPRPRPAIWPRP	0.463
RRIRNRPPRLPRPRPRPSNMPRP	-0.429
